Results as given in US20260055369A1 (H LEE MOFFITT CANCER CENTER AND RESEARCH INSTITUTE, published 2026).

Molecular target: T1, hNotch2 (EGF6-13, residues 221-530), biotinylated (human, UniProt Q04721 221-530, Biotinylated in vitro by BirA at the C-terminal BAP-tag (tag not in the letters).)
T1 construct: Immobilised on a streptavidin chip for SPR
T1 sequence: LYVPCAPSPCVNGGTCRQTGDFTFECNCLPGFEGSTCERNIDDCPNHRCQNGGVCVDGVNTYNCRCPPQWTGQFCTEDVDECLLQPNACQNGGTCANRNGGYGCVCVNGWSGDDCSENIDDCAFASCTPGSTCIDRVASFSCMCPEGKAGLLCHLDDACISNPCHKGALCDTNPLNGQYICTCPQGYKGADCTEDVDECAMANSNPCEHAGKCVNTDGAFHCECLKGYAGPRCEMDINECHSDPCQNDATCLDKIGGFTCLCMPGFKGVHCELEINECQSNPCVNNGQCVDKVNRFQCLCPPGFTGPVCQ
Assay: SPR (Biacore T200), biotinylated Notch fragment on streptavidin chip, DLL4 protein (N-EGF5) in flow, 1:1 model
Procedure: The rapid dissociation of WT DLL4 precluded kinetic fitting of the binding data.
Equilibrium dissociation constants were determined by surface plasmon resonance using a Biacore T200 instrument (GE Healthcare). Approximately 100 resonance units (RU) of biotinylated Notch extracellular fragments (Notch1 (EGF6-13), Notch2 (EGF6-13), Notch3 (EGF5-12), Notch4 (7-12), and mouse Notch1 (EGF6-13)) were immobilized on individual flow cells at 5 μl/min using a streptavidin-coated sensor chip (Series S Sensor chip SA, GE Healthcare). Three-fold serial dilutions of recombinant DLL4 proteins (N-EGF5) starting at 50 μM (WT DLL4), 18 μM (DLL4.v2), and 6 μM (DLL4.v1 and Delta^MAX) were flowed over the chip at 25° C. in SPR buffer (20 mM HEPES pH 7.4, 150 mM NaCl, 1 mM calcium chloride, 0.1% BSA supplemented with 0.005% surfactant P20). Association (“on-rate”) and dissociation (“off-rate”) phases were performed at 10 μl/min for 120 seconds and 300 seconds, respectively. […] Data collection rate was performed at 10 Hz, and curves were reference-subtracted from a flow cell containing 100 RU of a negative control non-related protein (biotinylated mouse RNF43 PA domain). The maximum RU for each experiment was normalized to a value of 100% and plotted as a function of concentration using Prism 9 software (GraphPad). Steady-state binding and kinetic curves were fitted using the Biacore T200 evaluation software to a 1:1 Langmuir model to determine the KD values.

B1: Delta^MAX (N-EGF5), non-biotinylated (ligand)
chain: SSVFQLQLQEFINERGVLASGRPCEPGCRTFFRVCLKHFQAVVSPGPCTFGTVSTPVLGTNSFAVRDDSSGGGRNPLQLPLNFTWPGTFSLIIEAWHAPGDDLRPEALPPDALISKFAIQGSLAVGQNWLLDEQTSTLTRLRYSYRVICSDNYYGDNCSRLCKKRNDYFGHYVCQPDGNPSCLPGWTGEYCQQPICLSGCHEQNGYCSKPAECLCRPGWQGRLCNECIPHPGCRHGTCSTPWQCLCDEGWGGLYCDQDLNYCTHHSPCKNGATCRNSGPRSYTCTCRPGYTGVDCELELSECDSNPCRNGGSCKDQEDGYHCLCPPGYYGLHCEHSTLSCADSPCFNGGSCRERNQGANYACECPPNFTGSNCEHHHHHHHH
notes: also called DLL4^MAX; soluble Delta^MAX
Q: For B1, which Kd is on record?
A: Its Kd is 54 nM.
